According to the supplement of paper PMC6757056:
± gives the standard deviation of the averaged measurements.

B1: library; a variant is named by its letters at N, in order (parent)
chain: GCUGUCACCGGUGCUUGGUACGUUAUAUUCAGCCGGUCUGAUGAGUCUNNNNNNAGACGAAACAGC

Legend:
(6R,S)-folinic acid [1] = variants of: B1; assay: normalized RNA/DNA level without ligand (relative to sTRSVctl = 100) (log10 (% of sTRSVctl)); HEK293T overexpressing SLC46A1; higher = less ribozyme self-cleavage, higher mRNA level; conditions: without (6R,S)-folinic acid; ligand present: no
Method in brief: (§1)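 Library plasmids encoding reporter-linked ribozyme switches (mCherry, or eGFP for some folinic acid experiments) were transfected into HEK293T at 4 µg per 6-well well. Ligand, when used, was added 1 h before transfection. Total RNA was extracted with EDTA 72 h later, then reverse-transcribed, amplified, barcoded and sequenced. RNA level was RNA reads over DNA reads, divided by a spiked-in non-cleaving control (or the top 25 sequences), ×100, log10; only sequences with ≥100 DNA reads were kept.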

(6R,S)-folinic acid [2] = variants of: B1; assay: normalized RNA/DNA level with ligand (relative to sTRSVctl = 100) (log10 (% of sTRSVctl)); HEK293T overexpressing SLC46A1; ligand concentration (+) RNA-Seq: 6 mM; higher = less ribozyme self-cleavage, higher mRNA level; conditions: with (6R,S)-folinic acid; ligand present: yes
Method in brief: as §1

Row | Variant | normalized RNA/DNA level without ligand (log10) ((6R,S)-folinic acid [1]) | normalized RNA/DNA level with ligand (log10) ((6R,S)-folinic acid [2])
1 | GCUGUCACCGGUGCUUGGUACGUUAUAUUCAGCCGGUCUGAUGAGUCUGAUCCUAGACGAAACAGC [GAUCCU] | 2.066 ± 0.02 | 2.06 ± 0.053
2 | GCUGUCACCGGUGCUUGGUACGUUAUAUUCAGCCGGUCUGAUGAGUCUGAAUUCAGACGAAACAGC [GAAUUC] | 2.01 ± 0.0081 | 2.02 ± 0.024
3 | GCUGUCACCGGUGCUUGGUACGUUAUAUUCAGCCGGUCUGAUGAGUCUAACCCUAGACGAAACAGC [AACCCU] | 2.047 ± 0.013 | 2.04 ± 0.036
4 | GCUGUCACCGGUGCUUGGUACGUUAUAUUCAGCCGGUCUGAUGAGUCUUAUUGUAGACGAAACAGC [UAUUGU] | 1.888 ± 0.012 | 2.005 ± 0.017
5 | GCUGUCACCGGUGCUUGGUACGUUAUAUUCAGCCGGUCUGAUGAGUCUCCCUGGAGACGAAACAGC [CCCUGG] | 2.101 ± 0.017 | 2.02 ± 0.022
6 | GCUGUCACCGGUGCUUGGUACGUUAUAUUCAGCCGGUCUGAUGAGUCUUUAGAUAGACGAAACAGC [UUAGAU] | 1.946 ± 0.012 | 1.99 ± 0.021
7 | GCUGUCACCGGUGCUUGGUACGUUAUAUUCAGCCGGUCUGAUGAGUCUACCUGGAGACGAAACAGC [ACCUGG] | 1.9783 ± 0.00064 | 2.04 ± 0.034
8 | GCUGUCACCGGUGCUUGGUACGUUAUAUUCAGCCGGUCUGAUGAGUCUUUUUAUAGACGAAACAGC [UUUUAU] | 2.007 ± 0.016 | 2.02 ± 0.023
9 | GCUGUCACCGGUGCUUGGUACGUUAUAUUCAGCCGGUCUGAUGAGUCUCAUCGGAGACGAAACAGC [CAUCGG] | 1.99 ± 0.024 | 2.02 ± 0.026
10 | GCUGUCACCGGUGCUUGGUACGUUAUAUUCAGCCGGUCUGAUGAGUCUGGCUGUAGACGAAACAGC [GGCUGU] | 2.067 ± 0.016 | 2.066 ± 0.019
11 | GCUGUCACCGGUGCUUGGUACGUUAUAUUCAGCCGGUCUGAUGAGUCUACCCGGAGACGAAACAGC [ACCCGG] | 2.01 ± 0.022 | 2.04 ± 0.041
12 | GCUGUCACCGGUGCUUGGUACGUUAUAUUCAGCCGGUCUGAUGAGUCUCCUUCAAGACGAAACAGC [CCUUCA] | 2.07 ± 0.021 | 2.04 ± 0.079
13 | GCUGUCACCGGUGCUUGGUACGUUAUAUUCAGCCGGUCUGAUGAGUCUAGUAGUAGACGAAACAGC [AGUAGU] | 1.943 ± 0.0095 | 2.012 ± 0.019
14 | GCUGUCACCGGUGCUUGGUACGUUAUAUUCAGCCGGUCUGAUGAGUCUAUCCCAAGACGAAACAGC [AUCCCA] | 2.022 ± 0.0087 | 2.03 ± 0.036
15 | GCUGUCACCGGUGCUUGGUACGUUAUAUUCAGCCGGUCUGAUGAGUCUCACCCCAGACGAAACAGC [CACCCC] | 2.031 ± 0.019 | 2.01 ± 0.022
16 | GCUGUCACCGGUGCUUGGUACGUUAUAUUCAGCCGGUCUGAUGAGUCUGUGUCGAGACGAAACAGC [GUGUCG] | 2.006 ± 0.0093 | 2.06 ± 0.037
17 | GCUGUCACCGGUGCUUGGUACGUUAUAUUCAGCCGGUCUGAUGAGUCUUCGUUCAGACGAAACAGC [UCGUUC] | 2.0303 ± 0.002 | 2.01 ± 0.034
18 | GCUGUCACCGGUGCUUGGUACGUUAUAUUCAGCCGGUCUGAUGAGUCUGAACCCAGACGAAACAGC [GAACCC] | 2.02 ± 0.018 | 2.017 ± 0.0044
19 | GCUGUCACCGGUGCUUGGUACGUUAUAUUCAGCCGGUCUGAUGAGUCUGAUUACAGACGAAACAGC [GAUUAC] | 1.987 ± 0.014 | 2.017 ± 0.017
20 | GCUGUCACCGGUGCUUGGUACGUUAUAUUCAGCCGGUCUGAUGAGUCUAUUCCCAGACGAAACAGC [AUUCCC] | 2.018 ± 0.019 | 1.99 ± 0.052
21 | GCUGUCACCGGUGCUUGGUACGUUAUAUUCAGCCGGUCUGAUGAGUCUAUCCGAAGACGAAACAGC [AUCCGA] | 1.998 ± 0.0056 | 2.023 ± 0.0052
